Laboratory results as given in patent US20060121535.

What was measured:
[1] = biological target: T1, GST-Crkl (intra SH3), P46109
T1 chain: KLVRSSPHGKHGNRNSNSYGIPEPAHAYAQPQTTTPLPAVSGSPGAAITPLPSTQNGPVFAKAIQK

[2] = biological target: GST-Crkl (full length), P46109
[3] = biological target: T2, Abl peptide NH2-EAIYAAPFAKKK-COOH (SEQ. ID. NO: 4), acrylic-labeled, photocleavable
T2 chain: EAIYAAPFAKKK

Chain of GST-Crkl (full length), P46109 (P46109 whole entry): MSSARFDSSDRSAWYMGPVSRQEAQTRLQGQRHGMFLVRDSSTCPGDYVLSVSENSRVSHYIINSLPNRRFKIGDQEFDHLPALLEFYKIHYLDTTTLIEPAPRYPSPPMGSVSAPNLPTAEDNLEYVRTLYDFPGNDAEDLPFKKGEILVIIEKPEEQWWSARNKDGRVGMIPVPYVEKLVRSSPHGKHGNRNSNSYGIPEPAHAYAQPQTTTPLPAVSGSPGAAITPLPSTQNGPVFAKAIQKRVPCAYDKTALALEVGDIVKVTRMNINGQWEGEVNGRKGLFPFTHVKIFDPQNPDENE
Chain of GST-Crkl (SH3), P46109 (P46109 120-303): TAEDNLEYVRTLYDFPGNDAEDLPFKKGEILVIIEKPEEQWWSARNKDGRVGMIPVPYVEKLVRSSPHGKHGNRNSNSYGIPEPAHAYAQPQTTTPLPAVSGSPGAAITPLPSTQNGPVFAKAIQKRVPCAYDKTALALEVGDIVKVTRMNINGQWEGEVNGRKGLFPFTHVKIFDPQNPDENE

B1: v-Abl tyrosine kinase (Calbiochem / EMD Biosciences) (protein)
chain: YITPVNSLEKHSWYHGPVSRNAAEYLLSSGINGSFLVRESESSPGQRSISLRYEGRVYHYRINTASDGKLYVSSESRFNTLAELVHHHSTVADGLITTLHYPAPKRNKPTIYGVSPNYDKWEMERTDITMKHKLGGGQYGEVYEGVWKKYSLTVAVKTLKEDTMEVEEFLKEAAVMKEIKHPNLVQLLGVCTREPPFYIITEFMTYGNLLDYLRECNRQEVSAVVLLYMATQISSAMEYLEKKNFIHRDLAARNCLVGENHLVKVADFGLSRLMTGDTYTAHAGAKFPIKWTAPESLAYNKFSIKSDVWAFGVLLWEIATYGMSPYPGIDLSQVYELLEKDYRMERPEGCPEKVYELMRACWQWNPSDRPSFAEIHQAFETMFQESSISD
tyrosine phosphorylation of bead-immobilized substrate, anti-phosphotyrosine Western blot [1]: v-Abl displays tyrosine kinase activity toward GST-Crkl (SH3) and GST-Crkl (intra SH3) in the absence of imatinib | tyrosine phosphorylation on protein array, ECL, 2 h reaction [1]: v-Abl demonstrates a slight preference for the GST-Crkl (SH3) substrate relative to the GST-Crkl (intra SH3) substrate | tyrosine phosphorylation of bead-immobilized substrate, anti-phosphotyrosine Western blot [2]: GST-Crkl (full-length) is not phosphorylated by v-Abl | tyrosine phosphorylation of surface spots, ECL film (Example 9) [2]: Qualitative detection of phosphorylated tyrosine for the 833 and 1660 ng spots of the two larger forms of GST-Crkl can be seen | tyrosine phosphorylation on protein array, ECL [2]: Phosphorylation of GST-Crkl (full-length) is minimal (data not shown) | tyrosine phosphorylation of bead-immobilized substrate, anti-phosphotyrosine Western blot (GST-Crkl (SH3), P46109): v-Abl displays tyrosine kinase activity toward GST-Crkl (SH3) and GST-Crkl (intra SH3) in the absence of imatinib | tyrosine phosphorylation of surface spots, ECL film (Example 9) (GST-Crkl (SH3), P46109): Qualitative detection of phosphorylated tyrosine for the 833 and 1660 ng spots of the two larger forms of GST-Crkl can be seen | tyrosine phosphorylation on protein array, ECL, 2 h reaction (GST-Crkl (SH3), P46109): v-Abl demonstrates a slight preference for the GST-Crkl (SH3) substrate relative to the GST-Crkl (intra SH3) substrate | extent of phosphorylation of the immobilized peptide, MALDI mass spectrometry [3]: the extent of phosphorylation was estimated to be approximately 90%
